Laboratory results: US20220041738A1 (SAITAMA MEDICAL UNIVERSITY, published 2022)
Where a chain is given by its changes, count along the chain named. Blank lines part the entries; values can stand above or below the binder they belong to.

What was measured:
Assay in all cases: immunofluorescence on transfected, formalin-fixed C2C12 cells, IgG at 10 µg/mL, Alexa 594 anti-rat IgG
[1] = target: T1, human ALK2-L196P on cells (human, UniProt Q04771 21-509)
T1 sequence: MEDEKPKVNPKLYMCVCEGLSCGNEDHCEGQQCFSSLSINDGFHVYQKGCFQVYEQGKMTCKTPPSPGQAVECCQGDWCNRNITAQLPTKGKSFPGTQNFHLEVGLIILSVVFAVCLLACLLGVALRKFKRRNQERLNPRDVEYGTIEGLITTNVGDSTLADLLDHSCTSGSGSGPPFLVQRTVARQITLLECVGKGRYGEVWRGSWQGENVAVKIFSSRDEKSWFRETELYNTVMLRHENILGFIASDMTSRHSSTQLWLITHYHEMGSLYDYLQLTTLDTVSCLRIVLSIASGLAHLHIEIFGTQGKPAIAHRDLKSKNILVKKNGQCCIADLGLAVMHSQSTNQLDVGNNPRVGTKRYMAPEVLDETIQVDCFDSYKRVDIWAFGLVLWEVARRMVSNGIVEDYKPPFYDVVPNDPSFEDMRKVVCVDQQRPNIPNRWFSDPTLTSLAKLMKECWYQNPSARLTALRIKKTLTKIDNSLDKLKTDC
Method: (§1) Mouse C2C12 cells were seeded into a 96-well plate (Greiner Bio-One) at 0.5×10³ cells/well, and cultured in 15% FBS-containing DMEM medium overnight under the conditions of 5% CO₂ at 37° C. On the following day, the C2C12 cells were transfected with each of a wild-type human ALK2 cDNA integrated into pcDEF3; pcDEF3/human ALK2-L196P, pcDEF3/human ALK2-P197_F198delinsL, pcDEF3/human ALK2-R202I, pcDEF3/human ALK2-R206H, pcDEF3/human ALK2-Q207E, pcDEF3/human ALK2-R258S, pcDEF3/human ALK2-G325A, pcDEF3/human ALK2-G328E, pcDEF3/human ALK2-G328R, pcDEF3/human ALK2-G328W, pcDEF3/human ALK2-G356D, and pcDEF3/human ALK2-R375P, which are variants identified in FOP; and pcDEF3 as a control, using Lipofectamine 2000 (Invitrogen), and further cultured overnight.
(§2) The C2C12 cells were fixed with 10% neutral formalin (Nacalai Tesque, Japan) for 20 minutes at room temperature, and then blocked with 10% goat normal serum for 30 minutes. After the blocking agent was removed, purified IgG diluted to 10 μg/mL with the blocking agent was added, and the cells were left for 1 hour at room temperature. After the cells were washed with PBS three times, Goat Alexa 594-conjugated anti-rat IgG (Invitrogen) diluted to 1:1000 with the blocking agent was added, and the cells were left for 1 hour at room temperature. After the cells were washed with PBS three times, the cells were fixed with 10% neutral formalin for 15 minutes at room temperature, and nuclear-stained with DAPI (LifeTechnologies). Fluorescent signals were analyzed with a fluorescence microscope BZ-9000 (Keyence).

[2] = target: T2, human ALK2-R202I on cells (human, UniProt Q04771 21-509)
T2 sequence: T1 sequence with P176L, R182I
Method: as §1, §2

[3] = target: T3, human ALK2-Q207E on cells (human, UniProt Q04771 21-509)
T3 sequence: T1 sequence with P176L, Q187E
Method: as §1, §2

[4] = target: T4, human ALK2-G328E on cells (human, UniProt Q04771 21-509)
T4 sequence: T1 sequence with P176L, G308E
Method: as §1, §2

binding result [1]: binds | binding result [2]: binds | binding result [3]: binds | binding result [4]: binds
B1: rat anti-ALK2 monoclonal antibody A2-25C (antibody, V domains shown)
VH: EVQLVESGGGLVQPGGSLKLSCAASGFTFSYYAMSWVCQAPTKGLEWVASISRGGDNTYYRDTVKGRFTTSRDNAKNTLYLQMDSLRSEDTATYYCARLNYNNYFDYWGQGVMVTVSS
VL: DIQMTQSPASLSASLEEIVTITCQASQDIGNWLSWYQQKPGKSPQLLIYGATSLADGVPSRFSGSRSGTQYSLKISRLRVEDIGIYYCLQAYSAPFTFGSGTKLEIKR
notes: Rat monoclonal IgG from a hybridoma; also called 25C11

binding result [1]: binds | binding result [2]: binds | binding result [3]: binds | binding result [4]: binds
B2: rat anti-ALK2 monoclonal antibody A2-27D (antibody, V domains shown)
VH: EVQLVESGGGLVQPGRSLKLSCLASGSTFSNYGMKWIRQAPGKGLEWVASISRSSTYIYYADTVKGRFTISRDNARNTLYLQMTSLRSEDTALYYCAAAISTPFYWYFDFWGPGTVVTVSS
VL: EIVLTQSPTTMAASPGEKVTLNCLASSSVSYMTWYQQKSGASPKLWIYGTSNLASGVPNRFSGSGSGTSYSLAISSMEAEDVATYYCLHLTSYPPYTFGAGTKLELKR
notes: Rat monoclonal IgG from a hybridoma; also called 27D11
